Measured values published in US20080194611A1, “Modulation of Cell Barrier Dysfunction” (priority 2005, published 2008).

Target: membrane protein on P. aeruginosa (whole cells, membrane fractions, solubilized membrane proteins of (Pseudomonas aeruginosa))

Chain of recombinant human IFN-γ (rH IFN-γ) (P01579 24-166 limits assumed): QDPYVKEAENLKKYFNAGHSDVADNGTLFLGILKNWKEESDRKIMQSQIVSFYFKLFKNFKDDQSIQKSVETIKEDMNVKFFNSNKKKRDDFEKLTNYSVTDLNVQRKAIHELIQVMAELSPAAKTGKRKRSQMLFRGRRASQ

Work on “recombinant human IFN-γ (rH IFN-γ) (from UniProt P01579 24-166) (ligand)” yielded a percent of bacterial cells that bound IFN-γ of 73%.
